This passage reports Kd results from article PMC3664666 (Science signaling, 2012).

The target in the experiment is T1, phosphorylated Mt-MviN KHD 681-963 (M. tuberculosis, UniProt P9WJK2 681-963, phosphothreonine at 947).
T1 sequence: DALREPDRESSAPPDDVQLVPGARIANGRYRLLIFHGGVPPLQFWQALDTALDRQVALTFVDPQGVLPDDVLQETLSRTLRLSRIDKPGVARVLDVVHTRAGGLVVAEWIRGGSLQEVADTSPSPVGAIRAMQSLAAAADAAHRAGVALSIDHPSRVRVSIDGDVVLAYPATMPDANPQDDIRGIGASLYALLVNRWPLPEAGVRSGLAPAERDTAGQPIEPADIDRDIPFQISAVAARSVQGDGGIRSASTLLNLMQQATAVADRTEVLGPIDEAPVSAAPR
Briefly: ITC.

B1: FhaA FHA domain (residues 390 to 525) (domain or fragment)
chain: PQGGGYAEPAGRDYDYGQSGAPDYGQPAPGGYSGYGQGGYGSAGTSVTLQLDDGSGRTYQLREGSNIIGRGQDAQFRLPDTGVSRRHLEIRWDGQVALLADLNSTNGTTVNNAPVQEWQLADGDVIRLGHSEIIVR
As for B1, binding was characterised by a dissociation constant (Kd) of 58 ± 2 nM.
